The values that follow are results of earlier work, collected in article PMC11276120.

Series [1] deals with PCNA (Homo sapiens) (UniProt P12004).
In series [2] the target is PCNA (Saccharomyces cerevisiae) (UniProt P15873). Nature of the series: NMR.
Sequence of PCNA (Saccharomyces cerevisiae) (P15873 whole entry): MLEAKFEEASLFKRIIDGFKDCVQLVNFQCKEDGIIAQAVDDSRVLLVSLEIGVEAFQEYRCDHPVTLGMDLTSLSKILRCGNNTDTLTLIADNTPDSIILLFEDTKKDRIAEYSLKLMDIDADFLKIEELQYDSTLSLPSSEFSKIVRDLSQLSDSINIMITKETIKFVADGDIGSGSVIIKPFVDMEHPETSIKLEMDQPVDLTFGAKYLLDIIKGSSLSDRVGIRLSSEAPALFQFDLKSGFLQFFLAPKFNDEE

Sequence of PCNA (Homo sapiens) (P12004 whole entry): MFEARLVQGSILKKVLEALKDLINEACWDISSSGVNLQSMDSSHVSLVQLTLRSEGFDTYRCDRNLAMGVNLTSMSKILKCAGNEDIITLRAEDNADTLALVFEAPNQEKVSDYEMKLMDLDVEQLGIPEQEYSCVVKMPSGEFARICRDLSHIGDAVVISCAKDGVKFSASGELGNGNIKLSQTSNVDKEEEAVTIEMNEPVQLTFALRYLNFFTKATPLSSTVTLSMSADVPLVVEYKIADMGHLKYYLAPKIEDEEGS
Sequence of Rev1 BRCT (P12689 158-252): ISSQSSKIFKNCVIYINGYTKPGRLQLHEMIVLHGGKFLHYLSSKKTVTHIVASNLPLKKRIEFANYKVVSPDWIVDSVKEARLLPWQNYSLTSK
Sequence of p21WAF1/CIP1 PIP-box (P38936 139-160): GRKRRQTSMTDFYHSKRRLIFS

Regarding “p21WAF1/CIP1 PIP-box (from UniProt P38936)”, in series [1], the Kd is 0.08 µM.

Turning to Rev1 BRCT (from UniProt P12689), the Kd in series [2] is 79 µM.

A word on the Kd: it is the constant that tells how readily two partners part at equilibrium.
